Laboratory results from US20080261241A1, “Targeted ubiquitination of proteins and screening methods using a new class of ubiquitin ligase proteins” (INSTITUT PASTEUR, priority 2007, published 2008).

How the values were obtained:
PKN1 = molecular target: T1, PKN1 (Homo sapiens, UniProt Q16512); assay: In vitro ubiquitination of PKN1; type: biochemical, mammalian; settings: GST-PKN1, E1, native ubiquitin, UbcH5B; anti-PKN1 antibodies
T1 construct: purchased Invitrogen
Protocol: To test whether SspH1 shares activities with IpaH9.8, a GST-SspH1 recombinant protein was purified. […] Ubiquitination of PKN1 by SspH1; SspH1, IpaH9.8, or IpaH9.8-C337A was incubated with E1, native ubiquitin, UbcH5B, and GST-PKN1 was tested.
(§1) Reactions were incubated at 37° C. for 1 h and stopped by the addition of an equal volume of Laemmli sample buffer (62.5 mM Tris-Hcl, pH 6.8, 10% glycerol, 2% SDS, 0.0005% bromophenol blue) containing, or not, 100 mM DTT. Ubiquitination reactions were carried out in the same manner except that 2 μg of HA-tagged ubiquitin, ubiquitin, ubiquitin-48R or […] were used instead of biotinylated ubiquitin. […] Reaction mixtures were separated by SDS/PAGE, transferred onto a nitrocellulose membrane and probed with specific antibodies or peroxidase-coupled streptavidin when biotinylated ubiquitin was used.

[1] = tested on: pheromone response pathway at or downstream of Ste11; assay: FUS1-HIS3 reporter growth of strain SY2625 with Ste11-4; type: cell-based, Saccharomyces cerevisiae; settings: SY2625 with plasmid encoding Ste11-4; medium lacking histidine with 3-amino triazole
From the text: To identify the target of IpaH9.8, yeast strains were used that were altered in the signalling cascade. […] The constitutively active variant of the MAPKKK Ste11 encoded by the allele STE11-4 promotes elevated transcription of pheromone responsive genes, even in the absence of pheromone (Stevenson et al., 1992). Growth of the strain SY2625 harbouring a FUS1-HIS3 pheromone-inducible reporter is dependent on signalling through the pheromone response pathway on a medium lacking histidine and containing 3-amino triazole (Evangelista et al., 1997). SY2625 containing a plasmid encoding Ste11-4, but not those containing the vector, were His^+, consistent with activation of the pathway by Ste11-4 and transcription of FUS1-HIS3. […] Upon phosphorylation by Ste11, Ste7 is ubiquitinated and, following removal of ubiquitin chains by the specific deubiquitinase Ubp3, is degraded by the proteasome (Wang et al., 2003).

HA-tagged ubiquitin [2] = molecular target: T2, HA-tagged ubiquitin (Homo sapiens, UniProt P0CG47); assay: In vitro polyubiquitination of ubiquitin; type: biochemical; settings: HA-ubiquitin, E1, UbcH5B; anti-HA antibodies
T2 construct: multiples of the size of HA-ubiquitin (9 kDa); purchased Boston Biochem
Protocol: (§2) Ubiquitin biotinylated on Lys residues can not support polyubiquitination reactions. To test if IpaH9.8 could polyubiquitinate proteins, reactions were performed using HA-tagged ubiquitin, instead of biotinylated ubiquitin.
as §1

HA-tagged ubiquitin [3] = assay: In vitro polyubiquitination of ubiquitin; type: biochemical; settings: K48R and K63R ubiquitin variants
Protocol: as §2, §1

Ste7 = molecular target: T3, Ste7 (Saccharomyces cerevisiae, UniProt P06784); assay: In vitro ubiquitination of Ste7; type: biochemical; settings: Ste7, Ste11-4, Kss1 complexes, native ubiquitin, E1, UbcH5B; anti-Ste7 antibodies
T3 construct: made in house
T3 sequence (P06784 1-515): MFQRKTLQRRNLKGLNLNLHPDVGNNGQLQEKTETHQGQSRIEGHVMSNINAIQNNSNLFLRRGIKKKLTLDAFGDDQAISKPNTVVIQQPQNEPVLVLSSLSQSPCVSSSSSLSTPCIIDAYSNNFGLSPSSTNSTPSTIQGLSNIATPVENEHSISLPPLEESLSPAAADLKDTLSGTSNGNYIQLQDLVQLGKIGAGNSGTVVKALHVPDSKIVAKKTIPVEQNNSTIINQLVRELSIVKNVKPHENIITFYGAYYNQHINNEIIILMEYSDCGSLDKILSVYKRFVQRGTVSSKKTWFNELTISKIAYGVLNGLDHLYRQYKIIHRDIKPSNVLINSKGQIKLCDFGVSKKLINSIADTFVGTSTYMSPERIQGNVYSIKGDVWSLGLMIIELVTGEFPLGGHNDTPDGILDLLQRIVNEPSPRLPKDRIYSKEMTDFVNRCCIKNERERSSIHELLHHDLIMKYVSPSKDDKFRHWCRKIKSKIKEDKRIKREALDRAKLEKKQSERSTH
Protocol: (§3) Thus, IpaH9.8 is an E3 ubiquitin ligase for Ste7; the proteasome-dependent disappearance of Ste7 in yeast was likely due to the degradation of Ste7 following its polyubiquitination by IpaH9.8 and IpaH7.8.
as §1

[4] = tested on: pheromone response MAPK pathway; assay: Pheromone-responsive FUS1-lacZ reporter (β-galactosidase); type: cell-based, Saccharomyces cerevisiae; settings: wild-type yeast, exposure to α-factor
From the text: (§4) To gain insight to IpaH9.8 activity, Saccharomyces cerevisiae was employed as a surrogate model. […] Detection of mating pheromone by a G protein-coupled receptor activates an archetypal MAPK signalling cascade, inducing both arrest of the cell cycle and transcription of mating genes. The pheromone α-factor diffusing from a disk causes cell cycle arrest in […] cells, resulting in a halo of inhibited growth (Hoffman et al., 2002).
Invasive wild-type Shigella flexneri 5 M90T-Sm (Allaoui et al., 1992) and its mxiE derivative SF1060 (Mavris et al., 2002) were used for infection. Plasmids were propagated in Escherichia coli DH5α (end A1 hsdR17 sup E44 thi1 recA1 gyrA relA1 lacZYA-argF). To create JRY101, the integrating plasmid pFC23 (O'Rourke and Herskowitz, 1998) containing a FUS-lacZ transcriptional fusion was digested with SphI and transformed into BY4741; Leu+ colonies were tested for pheromone-responsive β-galactosidase production. JRY100 was constructed by PCR-mediated gene disruption in strain BY4741, replacing the entire open reading frame of UBP3 by the Nat marker, as described (Goldstein and McCusker, 1999; Longtine et al., 1998); the gene replacement was confirmed by PCR.
Standard media and techniques were used for transformation, maintenance, and growth of yeast (Guthrie C, 1991). […]

[5] = tested on: pheromone response MAPK pathway; assay: Halo assay with α-factor disk; type: cell-based, Saccharomyces cerevisiae; settings: wild-type yeast, exposure to α-factor
From the text: as §4
Standard media and techniques were used for transformation, maintenance, and growth of yeast (Guthrie C, 1991). Halo assays were performed as described (Hoffman et al., 2002) using disks impregnated with 15 μg of α-factor. erg6 ? yeast were transformed with plasmids encoding IpaH9.8 or IpaH9.8-C337A and grown in selective media containing 1% raffinose to mid log phase. Following addition of MG132 (100 μM) and galactose (2%), cultures were incubated for 2 h and cell extracts were prepared as described (Wang et al., 2003). β-Galactosidase assays were performed as described (Guarente, 1983).

UbcH5B = molecular target: T4, UbcH5B (Homo sapiens, UniProt P62837); assay: In vitro removal of ubiquitin from ubiquitinated E2; type: biochemical; settings: biotinylated ubiquitin, E1, UbcH5B
T4 construct: His; made in house
T4 sequence (P62837 whole entry): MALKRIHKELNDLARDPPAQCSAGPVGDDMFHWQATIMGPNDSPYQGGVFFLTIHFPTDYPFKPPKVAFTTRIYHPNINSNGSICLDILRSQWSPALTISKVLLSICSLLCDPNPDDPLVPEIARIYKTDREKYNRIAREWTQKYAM
Protocol: The observation that the degradation of Ste7 promoted by IpaH9.8 is proteasome-dependent led us to test in vitro if IpaH9.8 might be involved in an ubiquitination pathway. It was discovered that the E2 enzyme UbcH5B was apparently not ubiquitinated by E1 in the presence of GST-IpaH9.8 (FIG. 2B).
as §1

MAPKK Ste7 = assay: Immunoblot of Ste7 amount in yeast; type: cell-based, Saccharomyces cerevisiae
ubiquitin = molecular target: T5, ubiquitin (Homo sapiens, UniProt P0CG47); assay: In vitro autoubiquitination; type: biochemical; settings: E1, UbcH5B
T5 construct: UbcH7, E1, ubiquitin, HA-ubiquitin, biotinylated ubiquitin, ubiquitin-K48R and -K63R; purchased Boston Biochem
Protocol: The amide linkage, but not the thioesther linkage, of ubiquitin to ubiquitinated proteins is resistant to dithiothreitol (DTT).
as §3, §1

sst2Δ cells = assay: Growth of sst2Δ yeast in the presence of pheromone; type: cell-based, Saccharomyces cerevisiae; settings: galactose-induced production, α-factor plates
[6] = tested on: pheromone response pathway downstream of Ste4; assay: Growth arrest by overproduction of Ste4; type: cell-based, Saccharomyces cerevisiae

T1 sequence (Q16512 whole entry): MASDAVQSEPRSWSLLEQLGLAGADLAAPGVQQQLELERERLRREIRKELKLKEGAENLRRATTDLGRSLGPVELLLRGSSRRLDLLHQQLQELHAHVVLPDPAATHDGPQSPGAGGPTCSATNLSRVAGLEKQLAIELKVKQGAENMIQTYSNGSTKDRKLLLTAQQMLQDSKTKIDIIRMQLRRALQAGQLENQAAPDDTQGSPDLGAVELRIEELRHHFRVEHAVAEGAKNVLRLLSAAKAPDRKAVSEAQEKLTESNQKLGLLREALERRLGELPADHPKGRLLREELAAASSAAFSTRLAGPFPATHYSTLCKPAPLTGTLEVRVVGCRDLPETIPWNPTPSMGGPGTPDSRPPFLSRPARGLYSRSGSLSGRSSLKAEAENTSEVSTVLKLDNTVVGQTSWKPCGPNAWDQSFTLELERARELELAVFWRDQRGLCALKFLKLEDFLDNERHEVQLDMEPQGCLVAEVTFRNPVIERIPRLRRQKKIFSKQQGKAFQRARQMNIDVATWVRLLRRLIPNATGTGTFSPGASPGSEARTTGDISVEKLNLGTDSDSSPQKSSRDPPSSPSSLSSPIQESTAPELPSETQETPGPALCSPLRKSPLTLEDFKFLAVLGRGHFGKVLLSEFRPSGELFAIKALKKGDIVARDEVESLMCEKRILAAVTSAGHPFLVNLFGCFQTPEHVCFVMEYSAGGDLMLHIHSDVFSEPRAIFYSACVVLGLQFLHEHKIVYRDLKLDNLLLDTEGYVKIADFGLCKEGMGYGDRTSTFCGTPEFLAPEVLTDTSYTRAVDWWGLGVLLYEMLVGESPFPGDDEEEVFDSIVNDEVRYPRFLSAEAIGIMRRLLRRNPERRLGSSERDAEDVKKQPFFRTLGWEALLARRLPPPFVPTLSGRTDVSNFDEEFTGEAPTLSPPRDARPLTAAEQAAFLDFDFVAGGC

B1: SspH1: Salmonella enterica Typhimurium homologue of IpaH, type III secretion effector; GST-SspH1 recombinant protein (protein)
chain: EFMLPINNNFSLPQNSFYNTISGTYADYFSAWDKWEKQALPGEERDEAVSRLKECLINNSDELRLDRLNLSSLPDNLPAQITLLNVSYNQLTNLPELPVTLKKLYSASNKLSELPVLPPALESLQVQHNELENLPALPDSLLTMNISYNEIVSLPSLPQALKNLRATRNFLTELPAFSEGNNPVVREYFFDRNQISHIPESILNLRNECSIHISDNPLSSHALQALQRLTSSPDYHGPRIYFSMSDGQQNTLHRPLADAVTAWFPENKQSDVSQIWHAFEHEEHANTFSAFLDRLSDTVSARNTSGFREQVAAWLEKLSASAELRQQSFAVAADATESCEDRVALTWNNLRKTLLVHQASEGLFDNDTGALLSLGREMFRLEILEDIARDKVRTLHFVDEIEVYLAFQTMLAEKLQLSTAVKEMRFYGVSGVTANDLRTAEAMVRSREENEFTDWFSLWGPWHAVLKRTEADRWAQAEEQKYEMLENEYPQRVADRLKASGLSGDADAEREAGAQVMRETEQQIYRQLTDEVLALRLFENGSQLHHS
modifications: left off: a dimerising Fc or GST
ubiquitination of PKN1 (PKN1): detected an additional species migrating at a size >250 kDa

B2: IpaH9.8: Shigella flexneri type III secretion effector protein (SEQ ID NO: 4), E3 ubiquitin ligase; used FLAG-tagged in yeast, GST-fused in vitro (protein, listed as Shigella flexneri)
chain: MLPINNNFSLPQNSFYNTISGTYADYFSAWDKWEKQALPGEERDEAVSRLKECLINNSDELRLDRLNLSSLPDNLPAQITLLNVSYNQLTNLPELPVTLKKLYSASNKLSELPVLPPALESLQVQHNELENLPALPDSLLTMNISYNEIVSLPSLPQALKNLRATRNFLTELPAFSEGNNPVVREYFFDRNQISHIPESILNLRNECSIHISDNPLSSHALQALQRLTSSPDYHGPRIYFSMSDGQQNTLHRPLADAVTAWFPENKQSDVSQIWHAFEHEEHANTFSAFLDRLSDTVSARNTSGFREQVAAWLEKLSASAELRQQSFAVAADATESCEDRVALTWNNLRKTLLVHQASEGLFDNDTGALLSLGREMFRLEILEDIARDKVRTLHFVDEIEVYLAFQTMLAEKLQLSTAVKEMRFYGVSGVTANDLRTAEAMVRSREENEFTDWFSLWGPWHAVLKRTEADRWAQAEEQKYEMLENEYPQRVADRLKASGLSGDADAEREAGAQVMRETEQQIYRQLTDEVLALRLSENGSQLHHS
modifications: FLAG tag or GST fusion
notes: used FLAG-tagged in yeast, GST-fused in vitro
His phenotype (FUS1-HIS3 reporter) [1]: His^−
polyubiquitination of HA-tagged ubiquitin (HA-tagged ubiquitin [2]): detected a ladder of ubiquitinated proteins
linkage of polyubiquitin chains (HA-tagged ubiquitin [3]): catalyzed the formation of polyubiquitin chains on Lys-48, but not Lys-63
ubiquitination of Ste7 (Ste7): larger species that formed only in the presence of IpaH9.8 were detected
expression of FUS1-lacZ reporter gene [4]: failed to form a halo and to induce expression
halo of inhibited growth [5]: failed to form a halo
removal of ubiquitin from ubiquitinated UbcH5B (UbcH5B): promoted the removal of ubiquitin from UbcH5B
disappearance of Ste7 (MAPKK Ste7; ubp3Δ and ste11Δ cells): still resulted in the disappearance of Ste7
amount of Ste7 (MAPKK Ste7; wild-type yeast, regardless of stimulation by α-factor): drastically reduced
autoubiquitination (DTT-resistant ubiquitinated protein) (ubiquitin; biotinylated ubiquitin): a DTT-resistant ubiquitinated protein of the size of GST-IpaH9.8 (FIG. 3) was detected
autoubiquitination (anti-IpaH antibodies) (ubiquitin; native ubiquitin, MAPK complexes): Both the non- and mono-ubiquitinated forms of IpaH9.8 were detected
growth of sst2Δ cells in the presence of pheromone (sst2Δ cells): allowed sst2Δ cells to grow in the presence of pheromone
rescue of growth arrest [6]: rescued this phenotype
